For experiment [1], the target named is T1, IGF-1R (insulin-like growth factor 1 receptor) on tumor cells (human, UniProt P08069 31-1367).
T1 construct: whole, on cells; Endogenous receptor on human tumor cell lines
Briefly: FACS on ADRr and MCF7 cells.

Experiment [2] addresses T2, ErbB3 (HER3) on tumor cells (human, UniProt P21860 20-1342).
T2 construct: whole, on cells; Endogenous receptor on human tumor cell lines
The experiment is described as follows: FACS on ADRr and MCF7 cells.

Experiment [3] concerns the target IGF-1R and ErbB3 together on tumor cells (MCF7, ADRr, BXPC3) (human) (UniProt P08069). The experiment is described as follows: FACS on ADRr cells (n = 3), apparent Kd.
For experiment [4] the target is unchanged. The experiment is described as follows: FACS on MCF7 cells (n = 1), apparent Kd.
Experiment [5] has as its target T1, IGF-1R (insulin-like growth factor 1 …). Briefly: cell-based or functional assay.
For experiment [6] the target is unchanged. Briefly: FACS on ADRr cells (n = 3), apparent Kd. The method, then: (§1) 1×10⁵ MCF7 cells and 1×10⁵ ADRr cells are incubated at room temperature for 2 hours with the BBA at 2 uM, followed by 12 subsequent 3-fold dilutions. Then using goat anti-HSA-Alexa647 conjugated antibody as the detection antibody, cells are incubated on ice for 40 minutes. Cell binding dissociation constants (measures of binding affinities) of the BBAs on MCF7 and ADRr cells are assessed by FACS and apparent dissociation constants are determined for each BBA. The following results were obtained (also see FIGS. 12a and 12b): […]

For experiment [7] the target is unchanged. Briefly: FACS on MCF7 cells (n = 1), apparent Kd.
The target in experiment [8] is T2, ErbB3 (HER3) on tumor cells. Briefly: FACS on ADRr cells (n = 3), apparent Kd. The method, then: as §1
The target is the same in experiment [9]. Briefly: FACS on MCF7 cells (n = 1), apparent Kd.
The target is the same in experiment [10]. Briefly: FACS binding to ADRr cells, y axis 'GaH-A647 Mean', x axis Ab [nM] (log).
Experiment [11] has the same target. Briefly: cell-based or functional assay.

As a reminder, the EC50 (read off the curve) is the midpoint of the concentration-response curve.

T2 sequence (P21860 20-1342): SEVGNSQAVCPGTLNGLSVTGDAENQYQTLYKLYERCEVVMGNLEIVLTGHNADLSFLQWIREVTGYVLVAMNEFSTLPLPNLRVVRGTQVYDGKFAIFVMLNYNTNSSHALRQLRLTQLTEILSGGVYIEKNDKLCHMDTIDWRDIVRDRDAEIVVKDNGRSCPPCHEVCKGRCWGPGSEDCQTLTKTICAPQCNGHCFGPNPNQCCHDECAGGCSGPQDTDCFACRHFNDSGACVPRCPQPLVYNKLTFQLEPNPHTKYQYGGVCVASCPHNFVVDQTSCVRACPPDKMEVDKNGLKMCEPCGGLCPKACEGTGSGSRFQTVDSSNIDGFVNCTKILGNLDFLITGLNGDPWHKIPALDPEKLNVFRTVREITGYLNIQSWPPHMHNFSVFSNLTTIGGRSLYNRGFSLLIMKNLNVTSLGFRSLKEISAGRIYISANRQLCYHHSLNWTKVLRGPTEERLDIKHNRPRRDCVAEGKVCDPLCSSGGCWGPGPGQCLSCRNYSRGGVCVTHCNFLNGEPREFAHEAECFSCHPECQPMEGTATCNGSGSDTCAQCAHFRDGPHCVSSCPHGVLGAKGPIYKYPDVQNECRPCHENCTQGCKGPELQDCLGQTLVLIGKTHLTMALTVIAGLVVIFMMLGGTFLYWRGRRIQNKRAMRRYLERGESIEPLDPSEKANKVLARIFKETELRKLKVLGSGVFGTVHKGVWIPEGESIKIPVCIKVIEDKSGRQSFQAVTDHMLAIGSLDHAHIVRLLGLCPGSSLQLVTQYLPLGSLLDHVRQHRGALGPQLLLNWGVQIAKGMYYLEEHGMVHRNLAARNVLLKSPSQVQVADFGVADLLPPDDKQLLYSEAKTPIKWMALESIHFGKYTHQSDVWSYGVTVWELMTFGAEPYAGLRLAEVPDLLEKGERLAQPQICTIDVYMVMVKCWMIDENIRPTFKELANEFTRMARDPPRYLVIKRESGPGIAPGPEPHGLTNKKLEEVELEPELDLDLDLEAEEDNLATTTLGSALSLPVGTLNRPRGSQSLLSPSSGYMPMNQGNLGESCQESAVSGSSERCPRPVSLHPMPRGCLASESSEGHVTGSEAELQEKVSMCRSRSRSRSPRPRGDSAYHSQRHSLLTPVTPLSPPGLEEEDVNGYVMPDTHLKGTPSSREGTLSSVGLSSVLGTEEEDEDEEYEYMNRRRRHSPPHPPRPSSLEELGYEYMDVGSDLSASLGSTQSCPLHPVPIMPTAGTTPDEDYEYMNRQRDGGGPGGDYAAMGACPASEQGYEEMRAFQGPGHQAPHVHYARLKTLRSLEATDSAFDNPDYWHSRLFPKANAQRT
IGF-1R and ErbB3 together on tumor cells (MCF7, ADRr, BXPC3) (human), sequence (P08069 31-1367, chain 1 of 2): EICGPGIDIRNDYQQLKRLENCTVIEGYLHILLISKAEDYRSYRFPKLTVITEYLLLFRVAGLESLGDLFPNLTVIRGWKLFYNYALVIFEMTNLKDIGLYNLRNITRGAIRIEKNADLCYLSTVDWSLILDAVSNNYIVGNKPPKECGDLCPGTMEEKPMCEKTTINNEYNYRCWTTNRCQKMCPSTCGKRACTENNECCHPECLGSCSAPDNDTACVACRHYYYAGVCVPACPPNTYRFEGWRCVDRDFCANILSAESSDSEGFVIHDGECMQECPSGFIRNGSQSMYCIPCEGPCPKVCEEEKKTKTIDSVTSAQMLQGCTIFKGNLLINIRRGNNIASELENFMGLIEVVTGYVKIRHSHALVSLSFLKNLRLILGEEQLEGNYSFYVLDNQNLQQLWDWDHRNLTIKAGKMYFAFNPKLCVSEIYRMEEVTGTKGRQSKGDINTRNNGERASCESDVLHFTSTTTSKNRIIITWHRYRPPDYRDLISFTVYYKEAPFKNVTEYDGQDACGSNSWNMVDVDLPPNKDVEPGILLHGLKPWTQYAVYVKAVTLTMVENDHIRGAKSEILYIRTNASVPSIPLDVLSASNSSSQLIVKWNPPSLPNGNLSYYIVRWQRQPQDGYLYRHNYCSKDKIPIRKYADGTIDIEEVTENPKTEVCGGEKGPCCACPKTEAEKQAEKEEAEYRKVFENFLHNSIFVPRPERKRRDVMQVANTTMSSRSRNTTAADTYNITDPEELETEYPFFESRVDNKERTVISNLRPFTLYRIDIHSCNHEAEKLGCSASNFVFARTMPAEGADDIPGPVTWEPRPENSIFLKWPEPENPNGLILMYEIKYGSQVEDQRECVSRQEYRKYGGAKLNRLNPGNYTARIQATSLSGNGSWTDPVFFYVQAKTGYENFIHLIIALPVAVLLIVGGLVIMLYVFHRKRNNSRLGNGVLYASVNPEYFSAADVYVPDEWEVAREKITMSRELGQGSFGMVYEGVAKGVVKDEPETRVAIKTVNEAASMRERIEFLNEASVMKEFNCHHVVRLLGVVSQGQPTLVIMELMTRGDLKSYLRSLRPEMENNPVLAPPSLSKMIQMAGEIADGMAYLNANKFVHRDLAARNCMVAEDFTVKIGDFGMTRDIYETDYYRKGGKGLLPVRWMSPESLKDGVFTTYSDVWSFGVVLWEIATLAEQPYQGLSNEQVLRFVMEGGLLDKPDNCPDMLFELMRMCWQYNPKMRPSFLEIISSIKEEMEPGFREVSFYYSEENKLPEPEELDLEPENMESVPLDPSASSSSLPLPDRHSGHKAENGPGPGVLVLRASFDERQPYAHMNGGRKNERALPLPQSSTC
IGF-1R and ErbB3 together on tumor cells (MCF7, ADRr, BXPC3) (human), sequence (P21860 20-1342, chain 2 of 2, further chain): as the sequence (P21860 20-1342) above
T1 sequence (P08069 31-1367): as the sequence (P08069 31-1367, chain 1 of 2) above

B1: ILE-10 (bispecific antibody, human IgG2, kappa)
heavy: EVQLLESGGGLVQPGGSLRLSCAASGFTFSVYPMHWVRQAPGKGLEWVSSISSSGGATRYADSVKGRFTISRDNSKNTLYLQMNSLRAEDTAVYYCAKDFYDILTGNAFDIWGQGTMVTVSSASTKGPSVFPLAPCSRSTSESTAALGCLVKDYFPEPVTVSWNSGALTSGVHTFPAVLQSSGLYSLSSVVTVPSSNFGTQTYTCNVDHKPSNTKVDKTVERKCCVECPPCPAPPVAGPSVFLFPPKPKDTLMISRTPEVTCVVVDVSHEDPEVQFNWYVDGVEVHNAKTKPREEQFNSTFRVVSVLTVVHQDWLNGKEYKCKVSNKGLPAPIEKTISKTKGQPREPQVYTLPPSREEMTKNQVSLTCLVKGFYPSDIAVEWESNGQPENNYKTTPPMLDSDGSFFLYSKLTVDKSRWQQGNVFSCSVMHEALHNHYTQKSLSLSPGKGGGGSGGGGSGGGGSLQEVQLLESGGGLVQPGGSLRLSCAASGFTFSAYNMRWVRQAPGKGLEWVSVIYPSGGATRYADSVKGRFTISRDNSKNTLYLQMNSLRAEDTAVYYCARGYYYYGMDVWGQGTLVTVSSASTGGGGSGGGGSGGGGSQSVLTQPPSASGTPGQRVTISCSGSDSNIGRNYIYWYQQFPGTAPKLLIYRNNQRPSGVPDRISGSKSGTSASLAISGLRSEDEAEYHCGTWDDSLSGPVFGGGTKLTVLS
light: DIQMTQSPSSFSASTGDRVTITCRASQGISSYLAWYQQKPGKAPKLLIYAASTLQSGVPSRFSGSGSGTDFTLTISSLQPEDSATYYCQQYFTFPLTFGGGTKVEIKRTVAAPSVFIFPPSDEQLKSGTASVVCLLNNFYPREAKVQWKVDNALQSGNSQESVTEQDSKDSTYSLSSTLTLSKADYEKHKVYACEVTHQGLSSPVTKSFNRGEC
notes: IgG-linked BBA, designed to be functionally dimeric; the numbers of ILE-10 stand on the line that begins with ILE-11; also called Bs14F3 huIgG2
As for B1, the binding result in [1] and in [2] was “binds” each time. Moreover, the Kd was found to be 7.1 nM in experiment [3] and 4.5 nM in experiment [4].

B2: ILE-12 (bispecific antibody, human IgG2, kappa)
heavy: EVQLLESGGGLVQPGGSLRLSCAASGFTFSVYPMHWVRQAPGKGLEWVSSISSSGGATRYADSVKGRFTISRDNSKNTLYLQMNSLRAEDTAVYYCAKDFYDILTGNAFDIWGQGTMVTVSSASTKGPSVFPLAPCSRSTSESTAALGCLVKDYFPEPVTVSWNSGALTSGVHTFPAVLQSSGLYSLSSVVTVPSSNFGTQTYTCNVDHKPSNTKVDKTVERKCCVECPPCPAPPVAGPSVFLFPPKPKDTLMISRTPEVTCVVVDVSHEDPEVQFNWYVDGVEVHNAKTKPREEQFNSTFRVVSVLTVVHQDWLNGKEYKCKVSNKGLPAPIEKTISKTKGQPREPQVYTLPPSREEMTKNQVSLTCLVKGFYPSDIAVEWESNGQPENNYKTTPPMLDSDGSFFLYSKLTVDKSRWQQGNVFSCSVMHEALHNHYTQKSLSLSPGKGGGGSGGGGSGGGGSLQEVQLLESGGGLVQPGGSLRLSCAASGFTFSVYDMYWVRQAPGKGLEWVSYIYSSGGDTDYADSVKGRFTISRDNSKNTLYLQMNSLRAEDTATYYCARASTNSIYDAMDVWGQGTTVTVSSASTGGGGSGGGGSGGGGSDIQMTQSPSSVSASVGDRVTITCRASQDITNWLAWYQQKPGKAPTLLIYDASTLQSGVPSRFSGSGSGTDFTLTISSLQPEDFATYFCQQANGFPLTFGGGTKVEIK
light: DIQMTQSPSSFSASTGDRVTITCRASQGISSYLAWYQQKPGKAPKLLIYAASTLQSGVPSRFSGSGSGTDFTLTISSLQPEDSATYYCQQYFTFPLTFGGGTKVEIKRTVAAPSVFIFPPSDEQLKSGTASVVCLLNNFYPREAKVQWKVDNALQSGNSQESVTEQDSKDSTYSLSSTLTLSKADYEKHKVYACEVTHQGLSSPVTKSFNRGEC
notes: IgG-linked BBA, designed to be functionally dimeric; the numbers of ILE-12 stand on the line that begins with ILE-13; also called Bs15F3 huIgG2
With B2, the binding result in experiment [1] and in experiment [2] was “binds” in each case. Also, the Kd stood at 0.3 nM in experiment [3] and 0.6 nM in experiment [4].

B3: AB5-7 IgG2 (antibody, V domains shown)
VH: EVQLLESGGGLVQPGGSLRLSCAASGFTFSVYPMHWVRQAPGKGLEWVSSISSSGGATRYADSVKGRFTISRDNSKNTLYLQMNSLRAEDTAVYYCAKDFYDILTGNAFDIWGQGTMVTVSS
VL: DIQMTQSPSSFSASTGDRVTITCRASQGISSYLAWYQQKPGKAPKLLIYAASTLQSGVPSRFSGSGSGTDFTLTISSLQPEDSATYYCQQYFTFPLTFGGGTKVEIKR
Consider B3, for which, in experiment [5], the “Ki, inhibition of IGF2-induced pAKT formation (ELISA, MCF7 cells)” value is 0.7 nM.

B4: IgG version of SEQ ID NO: 1 (antibody, V domains shown)
VH: EVQLLESGGGLVQPGGSLRLSCAASGFTFSVYPMHWVRQAPGKGLEWVSSISSSGGATRYADSVKGRFTISRDNSKNTLYLQMNSLRAEDTAVYYCAKDFYDILTGNAFDIWGQGTMVTVSS
VL: DIQMTQSPSSFSASTGDRVTITCRASQGISSYLAWYQQKPGKAPKLLIYAASTLQSGVPSRFSGSGSGTDFTLTISSLQPEDSATYYCQQYFTFPLTFGGGTKVEIKR
B4: the Kd came to 5.1 nM in [6] and 5.6 nM in experiment [7].

B5: IgG version of SEQ ID NO: 44 (antibody, V domains shown)
VH: EVQLLESGGGLVQPGGSLRLSCAASGFTFSVYDMYWVRQAPGKGLEWVSYIYSSGGDTDYADSVKGRFTISRDNSKNTLYLQMNSLRAEDTATYYCARASTNSIYDAMDVWGQGTTVTVSS
VL: DIQMTQSPSSVSASVGDRVTITCRASQDITNWLAWYQQKPGKAPTLLIYDASTLQSGVPSRFSGSGSGTDFTLTISSLQPEDFATYFCQQANGFPLTFGGGTKVEIK
In the case of B5, the Kd in experiment [8] is 0.4 nM; in experiment [9] it was 0.04 nM. The “EC50 (read off the curve)” value in experiment [10] was around 0.3 nM.

B6: IgG version of SEQ ID NO: 33 (antibody, V domains shown)
VH: EVQLLESGGGLVQPGGSLRLSCAASGFTFSAYNMRWVRQAPGKGLEWVSVIYPSGGATRYADSVKGRFTISRDNSKNTLYLQMNSLRAEDTAVYYCARGYYYYGMDVWGQGTLVTVSS
VL: QSVLTQPPSASGTPGQRVTISCSGSDSNIGRNYIYWYQQFPGTAPKLLIYRNNQRPSGVPDRISGSKSGTSASLAISGLRSEDEAEYHCGTWDDSLSGPVFGGGTKLTVLG
For the molecule B6, the Kd in experiment [8] is 1.2 nM; in experiment [9] it was 0.9 nM.

B7: Ab #6 (MM-121) (antibody, INN chains, looked up, V domains shown)
VH: EVQLLESGGGLVQPGGSLRLSCAASGFTFSHYVMAWVRQAPGKGLEWVSSISSSGGWTLYADSVKGRFTISRDNSKNTLYLQMNSLRAEDTAVYYCTRGLKMATIFDYWGQGTLVTVSS
VL: QSALTQPASVSGSPGQSITISCTGTSSDVGSYNVVSWYQQHPGKAPKLIIYEVSQRPSGVSNRFSGSKSGNTASLTISGLQTEDEADYYCCSYAGSSIFVIFGGGTKVTVL
In [11], B7 showed a Ki, inhibition of BTC-induced pErbB3 formation (ELISA, ADRr cells) of 1.1 nM and a Ki, inhibition of HRG-induced pErbB3 formation (ELISA, ADRr cells) of 0.1 nM.

For the origin of these results see patent US20170210809A1 (DYAX, published 2017).
